In the supplement of paper PMC10567573:

B1: HDAC6 (parent)
chain: KMKTRELHRESSNFDSIYICPSTF
B2: CCNC (parent)
chain: QSSHYLQWILDKQDLLKERQKDLK

Variants of: B1
Assay: protein stability index of a GFP-peptide fusion (GPS, HEK-293T) (PSI 1-6); higher = more stable
Settings: c terminus: a fixed tail appended
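Also: lentivirally expressed fusions sorted by FACS into six bins by GFP to DsRed ratio, PSI derived from sequencing read proportions per bin multiplied by bin number.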

Protein stability index, by site and new letter:
Y18: M 2.4, H 2.41, F 2.05, K 2.44, I 2.31, R 2.52
R9: I 1.86, M 1.84, N 2.4
M2: S 2.37, K 2.91, G 2.33, E 2.6, N 2.37, V 1.66, R 2.12
R5: F 1.94, G 2.39
I19: H 3.1, R 2.47, L 3.14, K 2.94, Q 3.2, P 3.35, S 2.35, M 1.44
F24: D 3.99, N 2.95, K 3.36, V 2.82, Y 2.88
S16: D 2.68, I 1.54, K 2.29
E10: S 1.79, F 2.26, W 1.22, L 2.15, G 3.45
T4: L 1.72, I 1.85, P 2.05, N 2.03, V 2.08, Q 2.26, F 2.11, M 1.65, E 1.99
N13: K 2.23, I 1.73, R 3.21, W 1.93, V 1.98, H 1.58, C 1.79
K1: W 1.98, M 1.83, P 2.58, G 2.29, V 2.33, Q 2.23
P21: T 1.54, A 1.77, N 2.37, H 1.34, E 1.91
T23: Y 1.83, F 1.96, N 3, I 1.71
D15: C 2.82, W 2.21, N 2.01, E 1.93, A 2
K3: D 2.59, H 2.04, Q 2.38, I 1.68, M 1.5, V 2.3, R 2.42, L 1.71
F14: S 2.8, C 2.24, P 2.99, K 3.03, E 3.34, A 3.84, M 2.44
H8: G 2.15, W 1.83, K 2.5
S22: W 3.05, T 1.74, Q 1.78, E 2.66, V 1.6
I17: P 2.41, F 1.85, M 2.57, C 2.49
E6: G 1.57, D 2.85, V 2.23, A 1.99
L7: H 3.02, S 3.05, I 2, C 1.75, G 3.12, N 2.65, W 2.62
S12: G 3.05, P 2.12, F 1.74, H 2.46, M 1.55, Y 1.53
S11: R 1.71, Q 2.36, G 1.96, I 2.71, D 2.54
C20: N 3.23, I 1.69, H 2.94, Y 2.07, K 2.15, V 2.24, A 2.86

Variants of: B2
Assay: as above
Settings: c terminus: a fixed tail appended

Protein stability index: each site, then its substitutions
L16: I 3.64, W 2.92, E 4, F 3.23, K 3.54, G 3.43
K21: W 2.3, A 2.78, G 2.87, E 2.99
Q7: G 3.23, L 2.22, M 3.79, S 2.65, P 3.31, F 1.57, T 3.66, N 2.84, V 1.97, I 1.94
K17: S 3.66, Q 4.4, N 3.53, W 1.97, H 2.93, Y 2.09, M 3.14
L10: G 3.76, S 4, T 3.34, N 4.17, I 2.97, F 3.4, E 4.29, R 3.61, K 3.6, V 3.09, W 2.54, P 4.58, Q 4.22, M 3.41
L6: A 3.83, P 4.53, K 3.92, R 3.54, W 2.96, N 4.03, C 3.71
Q13: L 1.85, A 2.74
R19: K 3.27, N 3.72, L 2.06, E 3.81, A 2.75, Y 2.72, D 3.93, P 3.56, S 2.94, H 3.03, F 2.14
H4: Q 2.52, G 3.03, T 2.79, Y 3.21, C 2.22, W 2.65, I 2.09, L 2.34, R 2.39, K 2.54, S 3.2, A 3, M 3.97
D22: I 2.48, A 2.61, S 2.59, M 2.55, C 2.54, E 3.19, R 3.72, F 2.67, Q 2.1, N 2.9, H 3.02, T 2.31
Q1: Y 2.53, L 2.78, N 3.13, H 2.04, R 3.1, G 3.6
L23: P 2.59, N 3.18, Q 3.83, S 3.54, E 3.81, A 3.41, M 3.31, H 3.31
Q20: F 2.67, Y 2.38, M 1.99, I 1.66, R 3.5, H 3.16, L 2.17, S 3.38, D 3.01, V 2.69
D11: L 2.72, T 2.58, G 2.75, M 2.36, V 2.86, S 3, W 2.38, P 3.13, N 2.83, F 2
W8: T 4.39, D 4.55, S 4.09, M 4.16, R 4.18, P 4.29, L 3.41, C 3.89, H 4.03
I9: E 4.87, K 4.09, F 3.98, Y 3.32, R 4.12, N 4.01, P 4.6, A 4.27, C 3.9
S2: Q 2.9, G 2.78, N 3.15, T 2.84, H 3.02
K12: W 1.52, Q 3.25, V 2.34, T 2.01, P 3.29, C 2.46, N 2.79, F 2.25, G 2.41
K24: H 3.29, A 2.66, P 2.4, S 2.81, Y 2.17, T 2.96, Q 2.77
S3: D 3.9, Q 2.68, F 1.94, P 3.22, E 3.87, K 2.82, L 1.92, A 3.9, H 2.95, T 2.42
E18: H 2.54, G 2.53, Y 2.2, W 1.8, F 2.15, N 2.53
D14: G 3.8, P 3.17, M 2.97, E 4.29, T 3.36, S 2.55, C 2.79, F 2.22, H 2.83, W 2.73
Y5: G 3.74, H 3.93, N 3.8, L 2.02, K 3.43, D 4.45, I 2.81, M 2.83, A 2.59, V 3.28, E 3.21
L15: W 3.37, G 3.44, E 4.08, F 2.54, I 3.11, Q 3.94, D 3.47
